{
  "source": "patent US20090117593A1",
  "about": "“T. Cruzi-derived neurotrophic agents and methods of use therefor” (Tufts University, priority 2006, published 2009)",
  "molecules": {"B1": {"name": "TS-F-47: recombinant fragment, amino acid residues 79-666 of SEQ ID NO:34 (protein, listed as Trypanosoma cruzi)", "chain": "GDARDWDILLAVGEVTKSTAGGKITASIKWGSPVSLKKFFPAEMEGMHTNQFLGGAGVAIVASNGNLVYPVQVTNKRKQVFSKIFYSEDDGKTWKFGKGRSDFGCSEPVALEWEGKLIINTRVDWKRRLVYESSDMEKPWVEAVGTVSRVWGPSPKSNQPGSQTSFTAVTIEGMRVMLFTHPLNFKGRCVRDRLNLWLTDNQRIYNVGQVSIGDENSAYSSVLYKDDKLYCLHEINTDEVYSLVFARLVGELRIIKSVLRSWKNWTATCPAFAPLLIQPLRRQRVVVVPLSPRLVLLAFCRQRLPKRMGGSYRCVNASTANAERVRNGLKFAGVGGGALWPVSQQGQNQRYRFANHAFTLVASVTIHEAPRAASPLLGASLDSSGGKKLLGLSYDEKHQWQPIYGSTPVTPTGSWETGKRYHLVLTMANKIGSVYIDGELLEGSGQTVVPDGRTPDISHFYVGGYKRSDMPTISHVTVNNVLLYNRRQLNTEEIRTLFLSQDLIGTEAHMDSSSDSSAHSTPSTPADSSAHSTPSTPVDSSAHSTPSTPADSSAHGTPSTPVDSSAHGTPSTPADSSAHGTPSTPVDS"}, "B2": {"name": "NGF: Mouse 7S nerve growth factor (protein)", "chain": "SSTHPVFHMGEFSVCDSVSVWVGDKTTATDIKGKEVTVLAEVNINNSVFRQYFFETKCRASNPVESGCRGIDSKHWNSYCTTTHTFVKALTTDEKQAAWRFIRIDTACVCVLSRKATRRG"}, "B3": {"name": "LTR: recombinant full-length C-terminal long tandem repeat of TS clone 7F (protein)", "chain": "NRRQLNTEEIRTLFLSQDLIGTEAHMDSSSDSSAHSTPSTPADSSAHSTPSTPVDSSAHSTPSTPADSSAHGTPSTPVDSSAHGTPSTPADSSAHGTPSTPVDSSAHSTPSTPVDSSAHSTPSTPVDSSAHGAPSTPADSSAHGTPSTPVDSSAHGTPSTPADSSAHSTPSTPADSSAHSTPSTPADSSAHSTPSTPVDSSAHGTPSTPADSSAHSTPSTPADSSAHGTPSTPVDSSAHSTPSTPVDSSAHGTPSTPVDSSAHSTPSTPVDSSAHGTPSTPVDSSAHSTPSTPADSSAHSTPSTPADSSAHGTPSTPVDSSAHSTPSTPADSSAHSTPSTPVDSSAHSTPSTPADSSAHGTPSTPVDSSAHGTPSTPADSSAHSTPSTPADSSAHSTPSTPADSSAHSTPSTPVDSSAHSTPSTPADSSAHSTPSTPADSSAHSTPSTPADSSAHSTPSTPVDSSAHSTPSTPADSSAHGTPSTPADSSAHSTPSTPVDSSAHSTPSTPADSSAHGTPSTPADSSAHSTPSTPADSSAHGTPSTPADSSAHSTPSTPAGSSANGTVLILPDGAALSTFSGGGLLLCACALLLHVFFMAVF"}, "B4": {"name": "cruzipain: T. cruzi protease (protein, UniProt P25779 123-467, looked up)", "Cruzipain": "APAAVDWRARGAVTAVKDQGQCGSCWAFSAIGNVECQWFLAGHPLTNLSEQMLVSCDKTDSGCSGGLMNNAFEWIVQENNGAVYTEDSYPYASGEGISPPCTTSGHTVGATITGHVELPQDEAQIAAWLAVNGPVAVAVDASSWMTYTGGVMTSCVSEQLDHGVLLVGYNDSAAVPYWIIKNSWTTQWGEEGYIRIAKGSNQCLVKEEASSAVVGGPGPTPEPTTTTTTSAPGPSPSYFVQMSCTDAACIVGCENVTLPTGQCLLTTSGVSAIVTCGAETLTEEVFLTSTHCSGPSVRSSVPLNKCNRLLRGSVEFFCGSSSSGRLADVDRQRRHQPYHSRHRRL"}, "B5": {"name": "TS-Cat-47: recombinant fragment consisting of amino acid residues 79-415 of TS (SEQ ID NO:2) (protein, listed as Trypanosoma cruzi)", "chain": "MVAIADARYDTSNDNSLIDTVAKYSVDDGETWETQIAIKNSRVSSVSRVVDPTVIVKGNKLYVLVGSYYSSRSYWSSHGDARDWDILLAVGEVTKSTAGGKITASIKWGSPVSLKKFFPAEMEGMHTNQFLGGAGVAIVASNGNLVYPVQVTNKKKQVFSKIFYSEDDGKTWKFGKGRSDFGCSEPVALEWEGKLIINTRVDWKRRLVYESSDMEKPWVEAVGTVSRVWGPSPKSNQPGSQSSFTAVTIEGMRVMLFTHPLNFKGRWLRDRLNLWLTDNQRIYNVGQVSIGDENSAYSSVLYKDDKLYCLHEINTDEVYSLVFARLVGELRIIKSVL"}},
  "key": {"neuroblastoma N18 cells": {"tested_on": "neuroblastoma N18 cells", "assay": "Neurite outgrowth assay in N18 cells", "format": "cell-based", "settings": "soluble or immobilized on plastic (500 μg/ml coating), 17 hours", "protocol": "96-well microtiter plates were coated overnight at 4° C. with the TS or peptides or fragments thereof, or with control proteins laminin (Ln) or bovine serum albumin (BSA) at 500 μg/ml. After removing the compounds, the plates were further incubated with 1% BSA for 1 hour at room temperature and immediately used as substratum for PC12 or N18 (Prasad, K., Biol. Rev. Camb. Philos. Soc., 66:431-451 (1991)) cells in serum-free RPMI/0.2% BSA. Neurite outgrowth was measured using a phase-contrast microscope 17 hours later."}, "Trans-sialidase assay": {"assay": "Trans-sialidase assay", "format": "biochemical", "protocol": "The trans-sialidase assay was performed as described (Scudder, P. et al., J. Biol. Chem., 268:9886-9891 (1993)) with slight modifications. Various amounts of intact enzyme or enzyme fragments were added to 50 mM PBS, Ph 7.2, containing 15% fetal calf serum and […] of [^14C]N-acetyllactosamine (4×10^5 dpm), 50 μg BSA and 0.02% NaN3 in a volume of 60 μl. After incubation for a predetermined amount of time at room temperature, the reaction mixture was diluted to 1.0 ml with distilled water and applied to a column containing 1.0 ml Q-Sepharose equilibrated with water. Sialylated product was eluted with 1 M NaCl and quantified by scintillation counting.\nTS enzymatic activity was measured by the sialylation of the acceptor ^14C-labeled N-acetyllactosamine on anion exchange resins (Scudder, P. et al., J. Biol. Chem. 268:9886-9891 (1993)). Recombinant TSA-1, was expressed on insect sf9 cells and purified from serum-free medium by ion exchange chromatography (monoQ) and preparative SDS-PAGE (Wrightsman, R. A. et al., J. Immunol., 153:3148-3154 (1994)."}, "PC12 cells [1]": {"tested_on": "PC12 cells", "assay": "Protection of PC12 cells from apoptosis induced by trophic factor withdrawal (DAPI, TUNEL)", "format": "cell-based", "description": "PC12 cells were obtained from ATCC (Manassas, Va. (Accession No. CRL-1721)) and cultured on collagen-coated dishes in RPMI 1640 supplemented with 10% horse serum and 5% fetal bovine serum (Greene, L., and Tishler, A., Proc. Natl. Acad. Sci. USA, 73:2424-2428 (1976)). For differentiation and survival experiments, cells were washed three times in serum-free RPMI/0.2% BSA, plated in the same medium in collagen-coated plastic dishes at 2×10^5/ml, without and with growth factors, TS, recombinant proteins, synthetic peptides, for the time and concentrations indicated in the Figures.\nCell staining with 4,6-diamino-2-phenylindole (DAPI). Cells were fixed with 4% formaldehyde in PBS for 5 minutes, washed with PBS, stained with 10 μg/ml DAPI (Sigma) for 2 minutes, washed with PBS, and visualized under UV light using a fluorescent microscope. About 300-400 cells were examined under the microscope to determine the percentage of apoptotic cells.\nCell DNA nick end labeling (TUNEL) (Gavrieli, Y. et al., J. Cell. Biol., 119:493-501 (1992)) assay was performed using a kit purchased from Boehringer Mannheim as described by the manufacturer.\nProtection against apoptosis of PC12 cells in serum-free medium containing a test agent (agent N) (e.g., protection induced by TS, TS fragments, NGF or other growth factors), was calculated by the formula: 100%−[(apoptosis(%) of cells kept in RPMI containing test agent N÷apoptosis (%) of cells kept in RPMI)×100%]. Testing the effect of Wortmannin (Sigma) and LY294002 (Sigma) in inhibiting the neuroprotection of TS was performed following the protocol described by others (Yao, R., and Cooper, G., Science, 267:2003-2006 (1995); D'Mello, et al., J. Neurosci., 17:1548-1560 (1997)). In brief, PC12 cells were switched from growth medium to RPMI without and with TS or various other growth factors. After 24 hours, Wortmannin and LY294002 were added to the cultures. After another 24 hours, cells were examined for apoptosis by the DAPI assay, as above."}, "PC12 cells [2]": {"tested_on": "PC12 cells", "format": "cell-based", "settings": "serum-free RPMI/0.2% BSA, collagen coated dishes, 16-17 hours"}, "IL-6 [3]": {"tested_on": "IL-6", "assay": "IL-6 secretion by T-24 carcinoma cells (ELISA)", "format": "cell-based, human", "settings": "24 hours", "protocol": "(§1) Primary cultures of human intestinal microvascular endothelial cells (HIMEC) isolated from normal jejunal mucosa/submucosal tissue were prepared as described (Strong et al., Gastroenterology 114:1244-1256 (1998)). The HIMEC were cultured in fibronectin-coated plasticware in MCDB medium (Sigma) supplemented with 20% FBS, 90 μg/ml heparin and 50 μg/ml endothelial cell growth factor (Sigma). T-24 cells (ATCC Accession No. HTB-4) were cultured in M199 medium supplemented with 10% FBS. PBMC were purified by Ficoll-Paque gradient as described (Current Protocols in Immunology, pp 7.1.1-7.1.2). Vero cells (ATCC Accession No. CCL-81) were grown in RPMI medium with 5% Nu serum and infected with the Silvio X-10/4 of T. cruzi as described previously (Chuenkova et al., J. Exp. Med. 181:1693-1703 (1995)).\n(§2) Endothelial cells and T-24 cells were plated on 24-well plates at a density of 1×10^3 cells/well, while peripheral blood mononuclear cells (PBMC) were plated in the similar wells at 1×10^6/well. Triplicat cultures of cells were incubated test agents for a predetermined amount of time. […] Cytokines and chemokines released in the culture supernatants were measured by ELISA assay following the instructions of the manufacturer (Endogen). The cytokines tested were IL-1β, IL-4, IL-8, […], IL-12, IFN-γ, TNF-α, and the chemokines RANTES and MCP-1. Negative controls were cells incubated in medium containing polymixin B at 10 μg/ml, and positive controls were cells incubated with bacterial LPS at the low ng/ml range (for PBMC or HIMEC) or in the μg/ml range for carcinoma T-24 cells. In some experiments, IL-1β or TNFα were used as positive control for cytokine release."}, "IL-6 [4]": {"tested_on": "IL-6", "assay": "IL-6 secretion by PBMC (ELISA)", "format": "cell-based, human", "settings": "24 hours", "protocol": "as §1, §2\nTR peptides (Table 2) were synthesized at the Tufts Synthesis Facility (Boston, Mass.). Each peptide was purified by HPLC, and the number of amino acids and molecular weight of each peptide verified by mass spectrometry. Peptides were dissolved in growth medium (10% FCS in RPMI) and added at various concentrations to 1×10^6 PBMC/well in 24-well plates. After 24 hours, IL-6 was assayed by ELISA in the conditioned supernatants."}, "human Schwann cells": {"tested_on": "human Schwann cells", "assay": "Serum withdrawal-induced apoptosis of Schwann cells (DAPI)", "format": "cell-based", "settings": "serum-free DMEM, 24-72 hours"}, "Akt kinase": {"tested_on": "Akt kinase", "assay": "Immunodetection and kinase assay of activated Akt in Schwann cells", "settings": "Western blot P-Akt (Ser473)", "quoted_text": "Schwann cells, grown in 10% FCS to 70% confluency in 6-well plates, were switched to DMEM containing 0.1% FCS for 48 hours to reduce basal Akt phosphorylation. Then the cells were placed in serum-free DMEM medium for 2 hours and challenged with TS, CD or other test factors for predetermined periods of time. When the PI-3 kinase inhibitor LY294002 (Sigma) was used, the inhibitor was added to the serum-starved cells 30 minutes before challenge with TS or CD. Cell samples were lysed with lysis buffer (20 mM Tris, pH 7.5, 150 mM NaCl, 1 mM EDTA, 1% Triton X-100 (t-Octylphenoxypolyethoxyethanol), 2.5 mM sodium pyrophosphate, 1 mM glycerophosphate, 1 mM Na3VO4, 1 μg/ml leupeptin and 1 mM Phenymethylsulfonyl fluoride (PMSF)). Samples (40 μg) were run on 10% SDS-Page, blotted to nitrocellulose paper and analyzed by Western (immuno) blot with monoclonal antibody specific for P-Ser473 of Akt (New England Biolabs). Reaction was visualized by chemiluminescence using the ECL kit (New England Nuclear).\nEnzymatic activity of Akt kinase was assessed using the synthetic substrate GSK-3α-fusion protein (Cell Signaling Technology, Beverly, Mass.), according to the protocol provided by Cell Signaling Technology. In short, lysates of Schwann cells subjected to various treatments were immunoprecipitated with Akt antibody coupled to agarose beads, and the immunoprecipitates incubated with GSK-3α-fusion protein as the substrate for Akt phosphorylation, in the presence of 200 μM ATP. Phosphorylation of GSK-3 fusion protein was detected by Western blot using phospho-GSK-3αβ (Ser21/9)-specific antibody (Cell Signaling Technology). The reaction product was identified by chemiluminescence using the ECL kit (New England Nuclear)."}},
  "note": "Entries after “also recorded” stand apart in the source; their conditions may differ. Read-outs that look alike come from different tables or passages of the source.",
  "data": [
    {"molecule": "B1", "values": [
      {"measurement": "neurite outgrowth in N18 cells", "setting": "neuroblastoma N18 cells", "value": "as effective as the native enzyme in stimulating neurite outgrowth; also recorded: active both in stimulating neurite outgrowth"},
      {"measurement": "trans-sialidase (enzymatic) activity", "setting": "Trans-sialidase assay", "value": "enzymatically inactive"},
      {"measurement": "protection of PC12 cells from apoptosis induced by trophic factor withdrawal", "setting": "PC12 cells [1]; serum-free RPMI-1640/0.2% BSA, 17 hours, DAPI or TUNEL", "value": "active"}
    ]},
    {"molecule": "B2", "values": [
      {"measurement": "neurite outgrowth in PC12 cells", "setting": "PC12 cells [2]", "value": "induces neurite outgrowth"},
      {"measurement": "PC12 cells protected from apoptotic death", "setting": "PC12 cells [1]; NGF at 0.5 ng/ml", "value": 18, "unit": "%"}
    ]},
    {"molecule": "B3", "values": [
      {"measurement": "IL-6 secretion by T-24 cells", "setting": "IL-6 [3]", "value": "effectively induced release of IL-6 in a dose-dependent manner; also recorded: dose dependent secretion of IL-6"},
      {"measurement": "neurite outgrowth in N18 cells", "setting": "neuroblastoma N18 cells", "value": "did not induce neurite outgrowth"},
      {"measurement": "IL-6 secretion by PBMC", "setting": "IL-6 [4]", "value": "upregulated IL-6 release"},
      {"measurement": "neurite outgrowth in PC12 cells", "setting": "PC12 cells [2]", "value": "did not induce neurite outgrowth"},
      {"measurement": "inhibition of serum withdrawal-induced apoptosis of Schwann cells", "setting": "human Schwann cells", "value": "did not promote Schwann cell survival"},
      {"measurement": "phosphorylation (activation) of Akt kinase in Schwann cells", "setting": "Akt kinase", "value": "nor activate PI3K/Akt signaling"}
    ]},
    {"molecule": "B4", "values": [
      {"measurement": "neurite outgrowth in PC12 cells", "setting": "PC12 cells [2]", "value": "did not induce neurite extension"},
      {"measurement": "neurite outgrowth in PC12 cells", "setting": "PC12 cells [2]; listed as cruzipan", "value": "ineffective"}
    ]},
    {"molecule": "B5", "values": [
      {"measurement": "neurite outgrowth in N18 cells", "setting": "neuroblastoma N18 cells", "value": "inactive in stimulating neurite outgrowth; also recorded: did not promote neurite outgrowth"}
    ]}
  ]
}
